Literature values, collected in publication PMC10172704 (Poultry Science, 2023).
Like-named read-outs stand apart in the source and are kept apart here.

What was measured:
Escherichia coli = settings: ref Wang et al., 2020
Staphylococcus aureus = settings: ref Wang et al., 2020

MIC (Escherichia coli; after proteolytic digestion by pepsin): 65 mg/mL
MIC (Escherichia coli): 130 mg/mL
MIC (Staphylococcus aureus): 260 mg/mL
B1: Milk lactoferrin: milk lactoferrin; literature MICs, also after proteolytic digestion by pepsin (protein, UniProt P02788 20-710, looked up)
Lactotransferrin: GRRRSVQWCAVSQPEATKCFQWQRNMRKVRGPPVSCIKRDSPIQCIQAIAENRADAVTLDGGFIYEAGLAPYKLRPVAAEVYGTERQPRTHYYAVAVVKKGGSFQLNELQGLKSCHTGLRRTAGWNVPIGTLRPFLNWTGPPEPIEAAVARFFSASCVPGADKGQFPNLCRLCAGTGENKCAFSSQEPYFSYSGAFKCLRDGAGDVAFIRESTVFEDLSDEAERDEYELLCPDNTRKPVDKFKDCHLARVPSHAVVARSVNGKEDAIWNLLRQAQEKFGKDKSPKFQLFGSPSGQKDLLFKDSAIGFSRVPPRIDSGLYLGSGYFTAIQNLRKSEEEVAARRARVVWCAVGEQELRKCNQWSGLSEGSVTCSSASTTEDCIALVLKGEADAMSLDGGYVYTAGKCGLVPVLAENYKSQQSSDPDPNCVDRPVEGYLAVAVVRRSDTSLTWNSVKGKKSCHTAVDRTAGWNIPMGLLFNQTGSCKFDEYFSQSCAPGSDPRSNLCALCIGDEQGENKCVPNSNERYYGYTGAFRCLAENAGDVAFVKDVTVLQNTDGNNNEAWAKDLKLADFALLCLDGKRKPVTEARSCHLAMAPNHAVVSRMDKVERLKQVLLHQQAKFGRNGSDCPDKFCLFQSETKNLLFNDNTECLARLHGKTTYEKYLGPQYVAGITNLKKCSTSPLLEACEFLRK
